The source of these data is patent US20250179160A1.

By EC50 (read off the curve) is commonly meant the midpoint of the concentration-response curve.

Test [1] deals with recombinant human Pro-Factor D (human) (UniProt P00746). Kind of test: ELISA: antibody titrated 3-fold from 3 ug/ml on plate coated with 1 ug/ml recombinant human pro-Factor D; HRP anti-mouse, rat or human secondary; OD450. (ELISA stands for enzyme-linked immunosorbent assay.)
Test [2] deals with recombinant human mature Factor D (human) (UniProt P00746). Kind of test: ELISA: antibody titrated 3-fold from 3 ug/ml on plate coated with 1 ug/ml recombinant human mature Factor D; HRP anti-mouse, rat or human secondary; OD450.

For MAB18241 (antibody), the values for the concentration giving a half-maximal response (EC50 (read off the curve)) in test [1] and in test [2] were 0.02 µg/mL and 0.04 µg/mL, respectively.
